{
  "source": "patent US9951335B2",
  "about": "“Compositions and methods for treating otitis media and other conditions with inhibitors of CYLD” (Georgia State University Research Foundation, Inc., priority 2012, dated 2018)",
  "molecules": {"B1": {"name": "siCYLD: RNA-mediated interference for downregulating CYLD expression using pSuper-CYLD, SEQ ID NO:13 (nucleic acid)", "chain": "GATCCCCGAGCTACTGAGGACAGAAATTCAAGAGATTTCTGTCCTCAGTAGCTCTTTTTGGAAA", "modifications": "expressed from pSuper vector"}},
  "key": {"[1]": {"tested_on": "Akt", "assay": "Akt ubiquitination in cells (immunoprecipitation, immunoblotting)", "format": "cell-based, human", "conditions": "epithelial cells", "protocol": "Western blot, immunoprecipitation and ubiquitination experiments were performed as follows. Western blots were performed using whole-cell extracts, separated on 8 or 10% SDS-PAGE gels, and transferred to polyvinylidine di& uoride membranes. The membrane was blocked with a solution of PBS containing 0.1% Tween 20 (PBS-T) and 5% BSA. The membrane was then incubated in a 1:2,000 dilution of a primary antibody in 5% BSA-PBS-T. After three washes in PBS-T, the membrane was incubated with 1:5,000 dilution of the corresponding secondary antibody in 3% non-fact skim milk-PBS-T. Respective proteins were visualized by using enhanced chemiluminescence detection reagents, according to the manufacturer's instructions. To conduct immunoprecipitation analysis, cell lysates were incubated with 1 μg of primary antibodies overnight, at 4° C., followed by 2-h incubation with protein A/G-agarose beads (Invitrogen). Immunoprecipitates were then suspended in a sample buffer, separated on 8% SDS-PAGE, transferred to polyvinylidine difluoride membrane, and detected by immunoblot analysis, as described above. […]"}, "[2]": {"tested_on": "TGF-β-signalling", "assay": "TGF-β-induced SBE-promoter activity in mouse MEF cells", "format": "cell-based", "protocol": "(§1) The expression plasmids Flag-WT-CYLD, HA-WT-CYLD, Flag-H/N-CYLD, HA-C/S-CYLD, Flag-WT-Smad3, C/A-TβRI, and the reporter plasmids SBE-Luc, PAI-1-Luc, and NF-κB-Luc were previously described. Flag-WT-Akt1, pRK5-HA-Ub WT, pRK5-HA-Ub K63, and pRK5-HA-Ub K48 were from Addgene, and K to R mutants of Akt were generated with WT-Akt1 using QuickChange XL Site-Directed Mutagenesis kit (Stratagene). All transient transfections were carried out using TransIT-LT1 reagent (Minis) or Lipofectamine (Invitrogen) according to manufacturers' instructions."}, "[3]": {"tested_on": "TGF-β-signalling", "assay": "TGF-β-induced SBE-promoter (SBE-Luc) activity in human epithelial cells", "format": "cell-based", "protocol": "as §1"}, "[4]": {"tested_on": "PAI-1", "assay": "TGF-β-induced PAI-1 expression (promoter activity, mRNA) in human cells", "format": "cell-based", "conditions": "A549 and HeLa cells", "protocol": "Total RNA was isolated using TRIzol reagent following the manufacturer's instructions. Synthesis of complementary DNA from total RNA was performed with MultiScribe reverse transcriptase. Real-time quantitative PCR was performed using an ABI 7500 Sequence Detection System (Applied Biosystems). Relative quantities of mRNAs were calculated using the comparative threshold cycle method and normalized using human and mouse glyceraldehyde-3-phosphate dehydrogenase as an endogenous control. The primer sequences for mouse COL1A2, COL3A1, CTGF and PAI-1, and human PAI-1, CHIP, and Smad3 are as follows. Mouse CTGF: 5′-[…]-3′ (SEQ ID NO:1) and 5′-[…]-3′ (SEQ ID NO:2); mouse COL1A2: 5′-[…]-3′ (SEQ ID NO:3) and 5′-[…]-3′ (SEQ ID NO:4); mouse COL3A1: 5′-[…]-3′ (SEQ ID NO:5) and 5′-[…]-3′ (SEQ ID NO:6); mouse PAI-1: 5′-[…]-3′ (SEQ ID NO:7) and 5′-[…]-3′ (SEQ ID NO:8); human PAI-1: 5′-[…]-3′ (SEQ ID NO:9) and 5′-[…]-3′ (SEQ ID NO:10); human CHIP: 5′-[…]-3′ (SEQ ID NO:11) and 5′-[…]-3′ (SEQ ID NO:12).\nas §1"}, "[5]": {"tested_on": "NF-κB", "assay": "TNF-α-induced NF-κB-Luc activity", "format": "cell-based", "conditions": "TNF-α 10 ng ml−1", "protocol": "as §1"}, "[6]": {"tested_on": "TGF-β-induced fibrotic response", "assay": "TGF-β-induced fibrotic response in TRAF6-depleted cells", "format": "cell-based", "text": "Because K14 lysine in the pleckstrin homology domain of Akt is critical for mediating its function, we next determined whether mutation of K14 lysine to arginine (R) reduces polyubiquitination of Akt. […] We further determined whether K14 residue in Akt is indeed functionally critical for mediating CYLD-induced inhibition of TGF-β-signalling. […] TNF receptor-associated factor 6 (TRAF6) was previously shown to function as an E3 ligase for Akt-K63 polyubiquitination and CYLD deubiquitinates TRAF6. Thus, we next explored the possibility that CYLD may inhibit Akt-mediated fibrotic responses via deubiquitinating TRAF6.\nIt is possible that CYLD may inhibit Akt-mediated fibrotic response by actually deubiquitinating TRAF6. Thus, we evaluated the effect of siCYLD on TGF-β-induced fibrotic response in TRAF6-depleted cells using siTRAF6. […] Here we have provided strong evidence that CYLD inhibits S. pneumoniae-induced Smad3-dependent fibrosis via inhibiting Akt, thereby linking CYLD to Smad3 via Akt. It is still unclear whether or not direct activation of Akt induces a fibrotic response via Smad3. Indeed, direct activation of Akt by expressing a constitutively active form of C/A-Akt induces expression of the fibrotic response gene PAI-1 and CTGF in Smad3+/+ cells, but not in Smad3−/− cells. […]"}, "[7]": {"tested_on": "PAI-1", "assay": "TGF-β-induced PAI-1 expression in Akt1−/− cells", "format": "cell-based", "text": "Thus, we determined the effect of knockdown of both Akt1 and 2 on Smad3 protein level in these cells. […] We further confirmed whether activation of Akt does induce upregulation of fibrotic response gene expression via Smad3. Activation of Akt by expressing a constitutively active C/A-Akt indeed induced expression of PAI-1 and CTGF in Smad3+/+ cells, but not in Smad3−/− cells. […] PI3 K is known as the one of the major signalling molecules upstream of Akt. We thus determined whether PI3K, like Akt, is also involved in mediating CYLD-dependent Smad3 degradation by evaluating the effect of PI3K and Akt inhibitors on Smad3 protein expression. […] Further studies are needed to determine whether CYLD-Akt-mediated regulation of Smad3 is indeed independent of PI3K by using more specific approaches."}},
  "data": [
    {"molecule": "B1", "values": [
      {"measurement": "S. pneumoniae-induced Akt ubiquitination", "setting": "[1]", "result": "markedly enhanced"},
      {"measurement": "SBE-Luc activity in the absence of Smad3", "setting": "[2]; Smad3-deficient MEF cells", "result": "did not enhance"},
      {"measurement": "SBE-Luc activity in cells reconstituted with WT-Smad3", "setting": "[2]; Smad3-deficient MEF cells + WT-Smad3", "result": "markedly enhanced"},
      {"measurement": "TGF-β-induced Smad-binding element (SBE)-dependent promoter activity", "setting": "[3]; A549 and HeLa cells", "result": "markedly enhanced"},
      {"measurement": "TGF-β-induced SBE-dependent promoter activity, dose-dependent manner", "setting": "[3]; A549 cells transfected with various amounts", "result": "enhanced"},
      {"measurement": "TGF-β-induced SBE-Luc activity", "setting": "[3]; human primary bronchial epithelial NHBE cells", "result": "enhanced"},
      {"measurement": "TGF-α-responsive PAI-1 promoter activity", "setting": "[4]", "result": "markedly enhanced"},
      {"measurement": "PAI-1 messenger RNA", "setting": "[4]; TGF-β stimulated", "result": "markedly enhanced"},
      {"measurement": "TNF-α-induced activation of NF-κB-Luc activity", "setting": "[5]", "result": "greatly enhanced"},
      {"measurement": "TGF-β-induced fibrotic response", "setting": "[6]", "result": "still enhanced"},
      {"measurement": "TGF-β-induced PAI-1 expression", "setting": "[7]", "result": "no longer enhanced"}
    ]}
  ]
}
